From the nanobody polyreactivity screen of Harvey et al. (2022)

Test: yeast display, Sf9 membrane polyspecificity reagent, FACS + sequencing; frameworks hold sequencing errors
Summary of the method: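 After 36–48 hours of galactose induction, yeast (Saccharomyces cerevisiae BJ5465) displaying a synthetic nanobody library were stained at 4 °C for 1 hour with 10% biotinylated, detergent-solubilized Sf9 membrane reagent. Streptavidin microbeads enriched the stained cells before FACS sorting into low and high (top ~1%) gates on anti-HA and streptavidin fluorescence. Each clone's polyreactivity label reflects its gate of origin.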

Row | Sequence | polyreactivity (PSR sort gate)
1 | QVQLVESGGGVVQAGGSLRLSCAASGRTFKKYAMGWYRQAPGKEREFVARITYSAGSTYYADSVKGRFTISRDNAKNSVYLQMNSLKPEDTAVYYCASRFASSGPRWYSRHGEYDYWGQGTQVTVSS | low polyreactivity
2 | QVQLVESGGGVVQAGGSLRLSCAASGRTFPLYAMGWYRQAPGKERELVAAIRTGGSTNYADSVKGRFTISRDNAKNTVYLQMNSLKPEDTAVYYCAAVQRTDRSAHYSWGQGTQVTVSS | low polyreactivity
3 | QVQLVESGGGVVQAGGSLRLSCAASGRTFRPYAMGWYRQAPGKERELVAAIDSSGTSTYYADSVKGRFTISRDNAKNSVYLQMNSLKPEDTAVYYCAKAWPDHWYSRYDYWGQGTQVTVSS | low polyreactivity
4 | QVQLVESGGGVVQAGGSLRLSCAASGSIFNGYAMGWYRQAPGNEWELVAAISGNGGRTYYADSVKGRFTFSRDYAKNTVYLQMNSLKPEETADYYCNKVSGYYVDYWGQGSQVTVSS | high polyreactivity
5 | QVQLVESGGGVVQAGGSLRLSCAASGSIFNRYAMGWYRQAPGKERELVAAISTHTGTTYYADSVKGRFTISRDNAKNTVYLQMNSLKPEDTAVYYCNAATYGGRYYYWGQGTQVTVSS | high polyreactivity
6 | QVQLVESGGGVVQAGGSLRLSCAASGSIFQSYAMGWYRQAPGKERELVAAISYSGDGPFYADSVKGRFTISRDNAKKTVYLQMNSLKPEDTAVYYCAASSTGYGGSTYYYWGQGTQVTVSS | low polyreactivity
7 | QVQLVESGGGVVQAGGSLRLSCAASGSIIWWYAMGWYRQAPGKERELVARMNKRSGSTYYADSVKGRFTISRDNAKNTVYLLRNSLKPEDTAVYYCAATWRSSGIAFFYWGQGTQVTLSS | high polyreactivity
8 | QVQLVESGGGVVQAGGSLRLSCAASGSTCSWYVMGWYRQAPGKERELVASISRSGGSTYYADSVKGRFTISRDNAKNTVYLQMNSLKPEDTAVYYCAARQAGYSGRKLYYWAQGTQVTVSS | low polyreactivity
9 | QVQLVESGGGVVQAGGSLRLSCAASGSTFDVYAMGWYRQAPGKERELVAAITSGGTTNYADSVKGRFTNSRDNAKNTVYLQMNSLKPEDTAVYYCAADSPWGGGYFVLYNYWGQGTQVTVSS | low polyreactivity
10 | QVQLVESGGGVVQAGGSLRLSCAASGSTFGINCYGMYRQAPGKERELVAGISVSGGSTYYADSVKGRFTISRDNAKNTVYLKMNSLKPEDSAVYYCNRDTTVFLIYSYGYWGQGTQVTVSS | low polyreactivity
11 | QVQLVESGGGVVQAGGSLRLSCAASGSTISPYAMGWYRPAPGKERELVAAISSGGSTSYADSVKGRFTISRDNAKNTVYLQMNSLKPEDTAVYYCHASSPGEVPVYDYDYWGQGTQVTVSS | low polyreactivity
12 | QVQLVESGGGVVQAGGSLRLSCAASGSTLAGYAMGWYRPAPGKERELVAAIDWTGGSTTYADSVKGRFTISRDYAKNTVYLQMNCLKPDDTAVYSCNVVLGVNGDYWGQGCQVTVSS | low polyreactivity
13 | QVQLVESGGGVVQAGGSLRLSCAASVSIFDDYAMGWYRQAPGKERELVASISRTGRTYYADSVKGRFTISRDNAKNTVYLQMNSLKPEDTAVYYCAATRYAPYRRYYYWGQGTQVTVSS | high polyreactivity
14 | QVQLVESGGGVVQAGGSLRLSCAGSGRTFGPYAMGWYRQAPGKERELVAAIRYIDDSTFYADSVKGRFTISRDKAKNTVYLQMNSLKPEDTAVYYCAAQRRVVGRHGLSLIRYDYWGQGTQVTVTS | low polyreactivity
15 | QVQLVESGGGVVQAGGSLRLTCAASGFTFSYNAMGWYRQAPGKERQLVAAISYSGGSTYYADSVKGRFTISRDTAKNTVYLQMNSLIPEHTAVYYCAAYSYYNYPNRGVYRGYYYWGQGTQGTVSS | high polyreactivity
16 | QVQLVESGGGVVQARGSLRLSCAASGRIFYGYAMGWYRQAPGKERELVAAITRSSSTYYADSVKGRFTISRDNAKNTVYLQMNSLKPEDTAVYYCAAASRRSGASSWYDYWGQGTQVTVSS | high polyreactivity
17 | QVQLVESGGGVVQARGSLRLSCAASGSPFWYHDMGWYRQAPGKERELVASISWSGGDTYYADSVKGRFTISRDNAKNTVYLQMNSLKTVDTAVYYCAAATLVSFWLDYWGEGTQVTVSS | low polyreactivity
18 | QVQLVESGGPLVQAGGSLRLSCAASGRTIRYYTMGWYRQAPGKEREFVAAITSTGGTYYADSVKGRFTSSRDNAKNTVYLQRTSLKQEDTGVYYCAATFIQFVVNVQLYDYDYWGQGTQVTVSS | low polyreactivity
19 | QVQLVESGGRIDQAGGRLRLSCAASGSIFDWYAMGWYRQAPGKERELVAAIDSSGSSTYYADSVKGRFTISRDNAKNTVYLQMNSLIPEDTAVYYCAADSDWIRYWFGSLYGSDYWGQGTQVSVSS | low polyreactivity
20 | QVQLVESGGRIVQAGGSLRLSCAASGRTFPINAMGWYRQAPGKERELVASIRWTDGTTYYADSVKGRFTISRDNAKNTVYLQMNSLKPEDTAVYYCAADAEGSASKYDYWGQGTQVTVSS | low polyreactivity

Row | Sequence | polyreactivity (PSR sort gate)
21 | QVQLVESGGRLVQAGCSLRLSCAASGFIFRLYAKGWYRQAPGKERELVAAISDDASTNYADSVKGRFTISRDNAKNTVYLQMNSLKPEDTAVYYCAAAVKRGYAQSFISDGYGYWGEGTQVTVSS | low polyreactivity
22 | QVQLVESGGRLVQAGGRLRLSCAASGFIVYFNAMGWYIQAPGKERELVAAIRISGGSTYYADSVKGRFTISRDNAKNTVYLQMNSLKPEDTAVYYCATAPENYVSVGYDYWGQGTQVTVSS | low polyreactivity
23 | QVQLVESGGRLVQAGGRLRLSCAASGRTFPIYVMGWYRQAQGKERELVATIDSDGTTNYADSVKGRFTISRDNAKNTVSLQMNSLKPEDTAVYYCAADSGWWEYCEDYWGQGTQVTVSS | low polyreactivity
24 | QVQLVESGGRLVQAGGRLRLSGAASGSNFTDNAMGWYRQAPGKERELVAGISERGSSTYYADSVKGRFTISRDNAKNTVYLQMNSLKRVDTAVYYCSAEDVGRYWSSTHNWARGDYWGQGTQVTVSS | low polyreactivity
25 | QVQLVESGGRLVQAGGSIRLSCAASGRTFYTNAMGWYRQAPGKERELVAAISSGGSTYYADSVKGRFTISRDNAKNTVYLQMNSLKPEDTAVYYCNVRRGGWGYRYYYWGQGTQVTVSS | high polyreactivity
26 | QVQLVESGGRLVQAGGSIRLSCAASGSIFVQYAMGWYRPAPGKERELVAAIDFSDTSTYYADSVKGLFTISRDNAKITVYLQMNSLKPEDTAVYYCAAEEDSPSRSAIAVEEYLGQGTQVTVSS | low polyreactivity
27 | QVQLVESGGRLVQAGGSLLLSCDASGSIFRHYAMGWYRQAPWQERELVAAISAIGGSTYADSVKGRFTISRDNAKNTVYLQMNSLIPEDTGVYYCNARSYTSYVYHEAGEFDYWGQGTQVTVSS | low polyreactivity
28 | QVQLVESGGRLVQAGGSLRLRCAASGRTFYWNGMGWYRQSPGKERELVAAITVSVGSTYFADSVKGRFTISRDNAKNTVSLQMNSLKPEDTAVYYCNADAYYEARIWSYRKGDYWGQGTQVTVSS | low polyreactivity
29 | QVQLVESGGRLVQAGGSLRLSCAASGFIFGFYAMGWYRQAPGKELELVAANSWSGGSTYYADSVKGRFTISRDKAKNTVFIQMNSLKPVDTAVYYCAAYFVYLDDAVTYDYWGQGTHVTVSS | low polyreactivity
30 | QVQLVESGGRLVQAGGSLRLSCAASGFIIVFYDMGWYRQAPGKERELVAGITRNDGSTYYADSVKGRFKISRDNAKNTVYLQMNSLKPEDTAVYYCAADRVRRNDKLAYDYWGQGTQVTVSS | low polyreactivity
31 | QVQLVESGGRLVQAGGSLRLSCAASGFTFDVYAMGWYRQAPGKERELVASITLRDGSTYYADSVKGRFTISRDNAKNTVYLQMNSLKPEDTAVYYCAADDSRATYEFEYWGQGTQVTVSS | low polyreactivity
32 | QVQLVESGGRLVQAGGSLRLSCAASGFTFRYYAMGWYRQAPGKERELVAAINSGGSTNFADSVKGRFTISRDNAKNTVYLQMNSLKPEDTAVYYCAKRGRRGIVYLGSAEMDYWGQGTQVTVSS | low polyreactivity
33 | QVQLVESGGRLVQAGGSLRLSCAASGFTFVYYAMGWYRQAPGKERELVAAVSWSGGTTYYADSVKGRFTISRDNAKNTVLLQMNSLKPEDTAVYYCNVYPAYNYFDYDYWGQGTQVTVSS | high polyreactivity
34 | QVQLVESGGRLVQAGGSLRLSCAASGGTFVVYAMGWYSQARGKARELGAAITWIGDSTYYADSVKGRFTISRDNAKNTVYLQMNSLKPEDTAVYYCNAEGGYYLTEYGYWGQGTQETVSS | low polyreactivity
35 | QVQLVESGGRLVQAGGSLRLSCAASGITFNVYAMGWYRQEPGKERELVAAITSSGATTYYADSVKGRFTISRDNAKNTVYLQMNSLKPEDTSVYYCAAKLSTRRYKYDYWGQGTQVTVSS | high polyreactivity
36 | QVQLVESGGRLVQAGGSLRLSCAASGITFTAYAMGWYRPAPGKERELVATINSTGITNYADSVKGRFTISRDNAKNTVYLQMNSLKPEDTAVYYCAADLLDISSYDGMDYWGQGTQVTVSS | low polyreactivity
37 | QVQLVESGGRLVQAGGSLRLSCAASGLIFAWYAMGWYRQAPGKQRELVATISWNGDRTYYADSVKVRFTISRDNAKNTVYLQMNSVKPVDSAVYYCAARFGSGFNYWGQGNQVTVSS | high polyreactivity
38 | QVQLVESGGRLVQAGGSLRLSCAASGRIFALNAMGWYRQAPGKERELVAAITWGGGSTYYADSVKGRFTISRDNAKNTVYLQMNSLKPVDTAVYYCAARYVFWPYWISGDSWGQGTQVTVSS | low polyreactivity
39 | QVQLVESGGRLVQAGGSLRLSCAASGRIFGYYAMGRYRQAPGKERQLVAAITSGGSTYYADSVKGRFTISRDNATNTVYLQMHSLKPEDTADYYCNARYWGRTKVYYWGQGTQVTVSS | high polyreactivity
40 | QVQLVESGGRLVQAGGSLRLSCAASGRIFTGYAMGWYRQAPGKERELVAAISSRGGSTYYADYVKVRFTISRDNAKNTVYLQMNSLKPEDTAVYYCNAYQWRHRYTMYYWGQGTQVTVSS | high polyreactivity
